Source: article PMC6309500 (Molecular cell, 2018)

Molecular target: FLAG-tagged PACS-2 (UniProt Q86VP3 1-889)
Test: co-IP

FLAG-tagged PACS-2, sequence (Q86VP3 whole entry): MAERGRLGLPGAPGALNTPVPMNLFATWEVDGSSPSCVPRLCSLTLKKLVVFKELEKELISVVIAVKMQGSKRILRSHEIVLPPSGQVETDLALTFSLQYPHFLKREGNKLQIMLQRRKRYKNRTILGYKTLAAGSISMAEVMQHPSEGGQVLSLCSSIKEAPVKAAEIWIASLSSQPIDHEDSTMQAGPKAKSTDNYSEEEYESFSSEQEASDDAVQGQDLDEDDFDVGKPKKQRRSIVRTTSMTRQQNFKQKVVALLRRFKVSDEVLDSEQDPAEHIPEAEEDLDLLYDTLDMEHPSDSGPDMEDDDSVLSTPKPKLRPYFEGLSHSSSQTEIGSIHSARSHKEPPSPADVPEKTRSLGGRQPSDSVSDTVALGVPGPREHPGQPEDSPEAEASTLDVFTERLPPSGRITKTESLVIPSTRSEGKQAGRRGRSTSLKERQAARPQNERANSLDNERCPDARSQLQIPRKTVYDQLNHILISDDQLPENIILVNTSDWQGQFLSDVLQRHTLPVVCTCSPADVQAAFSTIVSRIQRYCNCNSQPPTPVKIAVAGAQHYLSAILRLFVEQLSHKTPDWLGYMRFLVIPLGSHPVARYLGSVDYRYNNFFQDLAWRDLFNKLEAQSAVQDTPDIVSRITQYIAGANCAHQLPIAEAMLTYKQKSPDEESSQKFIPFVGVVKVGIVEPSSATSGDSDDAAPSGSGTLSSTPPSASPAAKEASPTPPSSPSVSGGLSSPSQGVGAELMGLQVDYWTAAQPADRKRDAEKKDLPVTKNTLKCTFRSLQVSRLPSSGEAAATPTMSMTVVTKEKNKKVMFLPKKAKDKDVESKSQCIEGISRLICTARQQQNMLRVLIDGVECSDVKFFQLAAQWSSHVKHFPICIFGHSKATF

B1: V5-tagged human SIRT1 (enzyme, UniProt Q96EB6 1-747, looked up)
chain: MADEAALALQPGGSPSAAGADREAASSPAGEPLRKRPRRDGPGLERSPGEPGGAAPEREVPAAARGCPGAAAAALWREAEAEAAAAGGEQEAQATAAAGEGDNGPGLQGPSREPPLADNLYDEDDDDEGEEEEEAAAAAIGYRDNLLFGDEIITNGFHSCESDEEDRASHASSSDWTPRPRIGPYTFVQQHLMIGTDPRTILKDLLPETIPPPELDDMTLWQIVINILSEPPKRKKRKDINTIEDAVKLLQECKKIIVLTGAGVSVSCGIPDFRSRDGIYARLAVDFPDLPDPQAMFDIEYFRKDPRPFFKFAKEIYPGQFQPSLCHKFIALSDKEGKLLRNYTQNIDTLEQVAGIQRIIQCHGSFATASCLICKYKVDCEAVRGDIFNQVVPRCPRCPADEPLAIMKPEIVFFGENLPEQFHRAMKYDKDEVDLLIVIGSSLKVRPVALIPSSIPHEVPQILINREPLPHLHFDVELLGDCDVIINELCHRLGGEYAKLCCNPVKLSEITEKPPRTQKELAYLSELPPTPLHVSEDSSSPERTSPPDSSVIVTLLDQAAKSNDDLDVSESKGCMEEKPQEVQTSRNVESIAEQMENPDLKNVGSSTGEKNERTSVAGTVRKCWPNRVAKEQISRRLDGNQYLFLPPNRYIFHGAEVYSDSEDDVLSSSSCGSNSDSGTCQSPSLEEPMEDESEIEEFYNGLEDEPDVPERAGGAGFGTDGDDQEAINEAISVKQEVTDMNYPSNKS
- fold enhancement of the co-IP in the presence of DBC1: > 8 fold

B2: V5-tagged mouse SIRT1 (enzyme, UniProt Q923E4 1-737, looked up)
chain: MADEVALALQAAGSPSAAAAMEAASQPADEPLRKRPRRDGPGLGRSPGEPSAAVAPAAAGCEAASAAAPAALWREAAGAAASAEREAPATAVAGDGDNGSGLRREPRAADDFDDDEGEEEDEAAAAAAAAAIGYRDNLLLTDGLLTNGFHSCESDDDDRTSHASSSDWTPRPRIGPYTFVQQHLMIGTDPRTILKDLLPETIPPPELDDMTLWQIVINILSEPPKRKKRKDINTIEDAVKLLQECKKIIVLTGAGVSVSCGIPDFRSRDGIYARLAVDFPDLPDPQAMFDIEYFRKDPRPFFKFAKEIYPGQFQPSLCHKFIALSDKEGKLLRNYTQNIDTLEQVAGIQRILQCHGSFATASCLICKYKVDCEAVRGDIFNQVVPRCPRCPADEPLAIMKPEIVFFGENLPEQFHRAMKYDKDEVDLLIVIGSSLKVRPVALIPSSIPHEVPQILINREPLPHLHFDVELLGDCDVIINELCHRLGGEYAKLCCNPVKLSEITEKPPRPQKELVHLSELPPTPLHISEDSSSPERTVPQDSSVIATLVDQATNNNVNDLEVSESSCVEEKPQEVQTSRNVENINVENPDFKAVGSSTADKNERTSVAETVRKCWPNRLAKEQISKRLEGNQYLFVPPNRYIFHGAEVYSDSEDDVLSSSSCGSNSDSGTCQSPSLEEPLEDESEIEEFYNGLEDDTERPECAGGSGFGADGGDQEVVNEAIATRQELTDVNYPSDKS
- fold enhancement of the co-IP in the presence of DBC1: > 8 fold
